The results in this text go back to publication PMC5001605 (Nucleic Acids Research, 2016).

B1: Pyrococcus furiosus Pcc1 (pfuPcc1), full-length (natural protein)
chain: MKAKRVQAKIEIEFPSEDVAKVVYEAVLYEHLSVPYRRSEIDFKLEGKKIILDIKATDSSALRGTVNSYLRWIKAAIDVIEV
B2: Methanococcus jannaschii Kae1 (mjKae1), amino acids 1-328 (domain or fragment)
chain: MICLGLEGTAEKTGVGIVTSDGEVLFNKTIMYKPPKQGINPREAADHHAETFPKLIKEAFEVVDKNEIDLIAFSQGPGLGPSLRVTATVARTLSLTLKKPIIGVNHCIAHIEIGKLTTEAEDPLTLYVSGGNTQVIAYVSKKYRVFGETLDIAVGNCLDQFARYVNLPHPGGPYIEELARKGKKLVDLPYTVKGMDIAFSGLLTAAMRAYDAGERLEDICYSLQEYAFSMLTEITERALAHTNKGEVMLVGGVAANNRLREMLKAMCEGQNVDFYVPPKEFCGDNGAMIAWLGLLMHKNGRWMSLDETKIIPNYRTDMVEVNWIKEIK
B3: Pyrococcus furiosus Kae1 (pfuKae1) (natural protein)
chain: MIALGIEGTAHTLGIGIVTENKVLANVFDTLKTEKGGIHPKEAAEHHAKLLKPLLRKALEEAGVSMEDIDVIAFSQGPGLGPALRVVATAARALAIKYNKPIVGVNHCIAHVEITKMFGVKDPVGLYVSGGNTQVLALEGGRYRVFGETLDIGIGNALDVFARELGLGFPGGPKIEKLALKGEKYIELPYAVKGMDLSFSGLLTEAIRKYKSGKYRVEDLAYSFQETAFAALVEVTERALAHTEKEEVVLVGGVAANNRLREMLRIMAEDRGVKFFVPPYDLCRDNGAMIAYTGLRMYKAGIKFKLEETIVKQKFRTDEVEVVW

Test [1] concerns the target B2. Kind of test: SEC-MALS. Background: In gel filtration, larger molecules generally elute earlier.
Test [2] addresses B1. Put plainly: SEC-MALS.
The target of test [3] is B1. Kind of test: SEC-MALS. This is another data set of the same source.
The target of test [4] is B1. Kind of test: AUC.

On to B1, for which the binding result in test [1] was “binds”.
As a reminder, the stoichiometry N is the number of molecules, sites or subunits per partner or assembly. For B2, the “stoichiometry N” value was 0.5 Kae1 per Pcc1 (1:2) in test [2], 1 Kae1 per Pcc1 (2:2) in test [3] and ~1 Kae1 per Pcc1 (2:2) in test [4].
Turning to B3, the “stoichiometry N” value in test [3] was 1 Kae1 per Pcc1 (2:2).
